In paper PMC5454954, “BDNF Binds Its Pro-Peptide with High Affinity and the Common Val66Met Polymorphism Attenuates the Interaction” (International Journal of Molecular Sciences, 2017):
One block for each molecule: values may come before it.

How the values were obtained:
[1] = biological target: BDNF pro-peptide, Met66 (Val66Met polymorphism; Met-pro-peptide) V66M (UniProt P23560); experiment: Surface plasmon resonance (BIAcore 2000); settings: pH 7.4; 20 °C; 0.15 M NaCl; HBS-EP: 0.01 M HEPES (pH 7.4). For Figure 2c the same buffer was adjusted to pH 6.5 or 7.0 with HCl.
[2] = biological target: BDNF pro-peptide, Val66 (wild type; Val-pro-peptide) (UniProt P23560); experiment: Surface plasmon resonance (BIAcore 2000); settings: pH 7.4; 20 °C; 0.15 M NaCl; HBS-EP: 0.01 M HEPES (pH 7.4). For Figure 2c the same buffer was adjusted to pH 6.5 or 7.0 with HCl.
[3] = biological target: T1, recombinant wild-type BDNF pro-peptide (Val at position 66) (human, UniProt P23560 19-128); experiment: SPR; BIAcore 2000; BDNF pro-peptide (Val or Met) amine-coupled to a CM5 chip at about 2000 RU; neurotrophins and other proteins flowed over; 20 °C, 20 µL/min; HBS-EP (0.01 M HEPES pH 7.4, 0.15 M NaCl, 3 mM EDTA, 0.005% Surfactant P20); settings: both partners purified
T1 construct: BDNF pro-peptide, residues 19-128 of human precursor BDNF; Vector pET-19b; also called Val-BDNF pro-peptide; Val-pro-peptide; source: E. coli BL21 (DE3) pLysS, purified by liquid chromatography
T1 sequence (looked up): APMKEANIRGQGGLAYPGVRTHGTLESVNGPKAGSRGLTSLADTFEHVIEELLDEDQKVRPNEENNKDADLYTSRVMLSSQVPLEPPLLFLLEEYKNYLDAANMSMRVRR

[4] = biological target: T2, recombinant BDNF pro-peptide with the Met substitution at position 66 (Val66Met) (human, UniProt P23560 19-128, Val66Met); experiment: as above; settings: both partners purified
T2 construct: BDNF pro-peptide, residues 19-128 of human precursor BDNF, with the common polymorphism Val66Met; Vector pET-19b; also called Met-BDNF pro-peptide; Met-pro-peptide; source: E. coli BL21 (DE3) pLysS, purified by liquid chromatography
T2 sequence (looked up): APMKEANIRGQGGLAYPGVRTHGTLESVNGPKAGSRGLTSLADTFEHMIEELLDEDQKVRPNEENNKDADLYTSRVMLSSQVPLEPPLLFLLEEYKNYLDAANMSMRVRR

[5] = biological target: T3, recombinant wild-type BDNF pro-peptide (Val at position 66) (human, UniProt P23560 19-128); experiment: SPR
T3 chain: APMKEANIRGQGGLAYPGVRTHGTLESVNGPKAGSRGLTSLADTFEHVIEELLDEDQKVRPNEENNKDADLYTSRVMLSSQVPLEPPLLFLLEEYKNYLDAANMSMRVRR

ka [1]: 36300 M⁻¹ s⁻¹
kd [1]: 0.000444 s⁻¹
ka [2]: 378000 M⁻¹ s⁻¹
kd [2]: 0.0159 s⁻¹
Molecule: Brain-derived neurotrophic factor (mature BDNF)

Kd [3]: 42.1 nM
koff [3]: 0.0159 s⁻¹
kon [3]: 378000 M⁻¹ s⁻¹
Kd [4]: 12.2 nM
koff [4]: 0.000444 s⁻¹
kon [4]: 36300 M⁻¹ s⁻¹
B1: brain-derived neurotrophic factor (BDNF), recombinant human (ligand)
chain: HSDPARRGELSVCDSISEWVTAADKKTAVDMSGGTVTVLEKVPVSKGQLKQYFYETKCNPMGYTKEGCRGIDKRHWNSQCRTTQSYVRALTMDSKKRIGWRFIRIDTSCVCTLTIKRGR
modifications: mature BDNF; non-covalent homodimer, three intrachain disulfides per chain; a recombinant N-terminal Met is not stated

Kd [5]: 230 nM
B2: recombinant human neurotrophin-4 (NT-4) (ligand)
chain: GVSETAPASRRGELAVCDAVSGWVTDRRTAVDLRGREVEVLGEVPAAGGSPLRQYFFETRCKADNAEEGGPGAGGGGCRGVDRRHWVSECKAKQSYVRALTADAQGRVGWRWIRIDTACVCTLLSRTGRA
